Laboratory results reported in the DeepSol protein solubility set.

Experiment: soluble on expression in E. coli; label from the status in PepcDB or PDB records

| Sequence | soluble on expression in E. coli |
| --- | --- |
| MKKRFIYHDEKSNKFWWIDYEGDSLAVNYGKVGSIGKFQTKEFDNEEQCLKEASKLIAAKMKKGYQEDPKFNFMDRYYFDDEEIGLHVKTSHPNFQCHFTDPLYMCCWDEESPFGSDEGADALNVLENSLRKEPDLDCADFPQMLIETMWGMKYIAMDSILEEDVRAQLLVDEMSTIQSNMITYATAFGQIKVMGKISHKLKKMGLNALARHQLTAKILQWGDGQDSPILQKMIDDLTAFPHENLEHHHHHH | soluble |
| MLTRLAAVLEERKNAAPDSSYVASLYHKGLNKILEKVGEESVETIIAAKDAAASGDCQDLIYETADLWFHSLVMLSALGQHPQAVLDELERRFG | soluble |
| VPGTLLPRLPSEPGMTLLTIRIEKIGLKDAGQCIDPYITVSVKDLNGIDLTPVQDTPVASRKEDTYVHFNVDIELQKHVEKLTKGAAIFFEFKHYKPKKRFTSTKCFAFMEMDEIKPGPIVIELYKKPTDFKRKKLQLLTKKPLYLHLHQSLHKE | soluble |
| THSEEEIKIIASESQKGGVLDEFETEIIRNAVDFSDTVAKEIMTPRKDMICLNKQKSYEENMQIICEHKHTRFPYIDGSKDTILGMIHIRDIIQNELNHKSQNLDTFVKPLILVPENISISKVLVMMNKERSHTALVVDEYGGTAGILTMEDIMEEIIGEIKSEHEEDSYKKLA | soluble |
| MSLTGLFEPIAPQAPLAERLRPKSLDEVVGQRHLLGEGKPLRLAFTSGKLPSMILWGPPGVGKTTLARLIANTADAEFIPLSAVLAGIKDIREAVERAEHTLQQSGRRTILFVDEVHRFNKGQQDAFLPFVESGLITFIGATTENPSFEVNSALLSRAQVFVLNALSEDELKQLLERGKQEMQLDIPLTPEVVEQVLGYADGDARRLLNFVEGLFNAALTAGVTKIDAEFLQSTMASKLRRFDKGGEAFYDQISALHKSVRGSNPDAALYWFLRMLDGGADPLYLGRRIVRMAVEDIGIADPRAQTMALEACQIYERLGSPEGELALSNAVIYLAVAAKSNAAYMAYNQAKAFVASDKSRPVPLHLRNAPTKLMKDLNYGKEYRYAHNEPGAYAAGEDYFPDGLEAIQFYVPTQRGLEGKISEKMAHLRALDEEARSKEGHHHHHH | soluble |
| MVKQVGNTEIKENHRASCHCGAVVLELYLPNGIEKPRRCDCSICRRKGAIVGSVPLANIKILKGESELKLYQFNTGTAKHYFCSNCGIYTHHQRRSDPTEYGYNIGCLEGVNPYELGAIEVMDGVNHPADRKKILEHHHHHH | not soluble |
| REIADNTYIVLGTMTLNDFNEYFETDLESDNVDTIAGFYLTGVGTIPSQEEKEHFEVESNGKHLELINDKVKDGRVTKLKILVSEVEEKEDEKD | not soluble |
| PTGNNAEICLLPLDYGPCRALLLRYYYDRYTQSCRQFLYGGCEGNANNFYTWEACDDACWRIE | soluble |
| MGSDKIHHHHHHMTSARRMLIDANTTPFYHVINRCVRRAFLCGEDKLTGRSYEHRRGWIVDKIKALSAIFCIDICAYAVMSNHYHLVLKIDVEKAKSLTQKDIISRWCQITKGHAIATKYMNGDALIEGERMLLDALIAEWHERLSSISWFMRCLNEEIARKANREDECKGAFWEGRFKSQALLDEQALLACMMYVDLNPIRAGIADSLQSSDFTSIQERMNSLNTHSIAPKLAKITVDNTLSIPHKSLAKFEGATHIHQQTGIPFHFADYLELIDWTGRAIRHDKKGFIDNLRPKLLNELGIASDAWLLSAKEFRRQYSGVSGRWDAMCAFKHKQGGKWCRGKSHSQALHPEQINGLTLR | not soluble |
| KLFEHTVLYDSGDAFFELKGNASMKLSPKAAIEVCNEAAKKGLWILGIDGGHWLNPGFRIDSSASWTYDMPEEYKSKIPENNRLAIENIKDDIENGYTAFIITLKM | soluble |
| MSLKSIAQEHDCLLIDLDGTVFCGRQPTGGAVQSLSQVRSRKLFVTNNASRSADEVAAHLCELGFTATGEDVVTSAQSAAHLLAGQLAPGARVLIVGTEALANEVAAVGLRPVRRFEDRPDAVVQGLSMTTGWSDLAEAALAIRAGALWVAANVDPTLPTERGLLPGNGSMVAALRTATGMDPRVAGKPAPALMTEAVARGDFRAALVVGDRLDTDIEGANAAGLPSLMVLTGVNSAWDAVYAEPVRRPTYIGHDLRSLHQDSKLLAVAPQPGWQIDVGGGAVTVCANGDVDDLEFIDDGLSIVRAVASAVWEARAADLHQRPLRIEAGDERARAALQRWSLMRSDHPVTSVGTQEGHHHHHH | not soluble |
| MQLQKLVNMFGGDLTRRYGQKVHKLTLHGGFSCPNRDGTIGRGGCTFCNVASFADEAHEHRSIAEQLAHQANLVNRAKRYLAYFQAYTSTFAEVQVLRSMYQQAVSQANIVGLCVGTRPDCVPDAVLDLLCEYKDQGYEVWLELGLQTAHDKTLHRINRGHDFACYQRTTQLARQRGLKVCSHLIVGLPGEGQAECLQTLERVVETGVDGIKLHPLHIVKGSIMAKAWEAGRLNGIELEDYTLTAGEMIRHTPPEVIYHRISASARRPTLLAPLWCENRWTGMVELDRYLNEHGVQGSALGRPWLPPTELEHHHHHH | not soluble |
| NVAGEEAVREYKKGDEISAVVLAVDAERERISLGIKQMENDPFNAYVADNKKGTLVNATVTAVDAKGATVEIAEGVEGYIRASEVSRDRVEDASLILSAGDVVEAKFTGVDRKNRVINLSIKAKDEAEEQEAMASINKQDEAAFGNAMADAFKAAKGE | not soluble |
| STDDKDVLRDVWFGRIPTCFTLYQDEITEREAEPYYLLLPRVSYLTLVTDKVKKHFQKVMRQEDVSEIWFEYEGTPLKWHYPIGLLFDLLASSSALPWNITVHFKSFPEKDLLHCPCKDAVEAHFMSCVKEADALKHKSQVINEMQRKDHKQLWMGLQNDLTSFGPSTGNSWNTLQKKMDFVISLLEYIRPQLNGLSFRSCSVLWPQMDSCIPLEIS | soluble |
| ELTLRIAYNLFTQRPKEEYDDFARWITMTGPGKGSDVYKMNGAGEMLVFSAADFEDFLEPRPDLMPAMEEELKKVVALLVEHRWPFRLHATYDESISRFLAVFEAVDREIPFRGLRWFFDHAETISNRNLERVRRLGGGIAIQDRMAFQGEYFVARYGAEAAKRTPPIARMLAMGIPVGAGTDATRVSSYNPWLSLYWLVSGKTVGGLPLYDDANRLDRTAALRLYTEGSSWFSGDNGSKGALIAGRHADLAVLSADYFAVPEARIKDIESVLTIMGGKIVHASDEFAPLAPPLPPVSPDWSPVASYGGYHGNAAVSTGLRREPCVCHSHSPAWSGPDPRFWGIGCDCFA | not soluble |
| MAHHHHHHMGTLEAQTQGPGSMAIDPNSIGAVTEPMLFEWTDRDTLLYAIGVGAGTGDLAFTTENSHGIDQQVLPTYAVICCPAFGAAAKVGTFNPAALLHGSQGIRLHAPLPAAGKLSVVTEVADIQDKGEGKNAIVVLRGRGCDPESGSLVAETLTTLVLRGQGGFGGARGERPAAPEFPDRHPDARIDMPTREDQALIYRLSGDRNPLHSDPWFATQLAGFPKPILHGLCTYGVAGRALVAELGGGVAANITSIAARFTKPVFPGETLSTVIWRTEPGRAVFRTEVAGSDGAEARVVLDDGAVEYVAG | soluble |
| MGSDKIHHHHHHMTQQVINSTSKNHLSPLENQKRYRVVLVHPSAGVNWSGGSEIFAIELARHLNSYFNVELLSGADCGSFSFPSGGISRTQAFNIVRHPLISKLLSRFASHPEIVIEHLSNFFPCAIQLLTKSADLIFPCNDYGGMAMAAFVRAIKGTPILFTEHVGLLGGGKSLTRNLRFHPDQLVVFSEAMAEFVRSVQPQQKVSIIPNGVDINRFTPVGNYINFGLPKPIVLCVASLKRHSHKRIGLAMEAVARLPQISLLLCGDGIDRDYFQAKGDELLGKERFKIQSFPYEQMPTVYRSADVFTLPSIDEPFGLAYVEAMASGLPVIATDDEMRRQIVGDAGRLCDVTNPDIYAAAIREILTQDWQVRARQKALGFSWENIALRYRELILKTIQGDQQNH | not soluble |
| MSLSFSTLMDKRERGSFDSQFLIAMPGLDDGNFARSVIYICAHSDAGAMGFIINRPQQITFTDILLHLKLVDSNDAIMLPNRTREFPIQCGGPVESGRGFVLHSDDYLSESSIPVSDDISLTATLDIVRAISNGRGPQKATMMLGYAGWGPGQLENEIANNGWLNCPAAEELIFDRGLDNKYERALALMGVDARMLSTDAGHAEGHHHHHH | not soluble |
| MVLQIMLLTKPVPLYPPYIDLCDFDFDDYPQLDKIFSSNEPWWLEQFNWGKIFLTYIGRNKSAHTYERFRNDVERFLLWSFIVKKKPIDQLRKSDLLEYADFCWQPPVDWIGTSNQERFKITNGYSAANELWFPYKIQAPKSLKSQFVIDKKKYRPSQQTLSSMFTAIIVFYNYLMAEDFCIGNPAQIAKKDCRHFIIDSQVKEIKRLTGSQWQFVLDTAVEMADENAMFERNLFVIASLKTLFLRISELSERPNWSPTMGHFWQDDDENWWLKIFGKSRKLRDITVPIDFLPFLERYRASRGLLGLPSSNENSILVEKVRGQGGMTSRHLRRLVQSVFDQAHENMRRSEGENKALKLKEASAHWLRHTGASMEIERGRPLKDISEDLGHASMATTDTVYVQSENKKRAESGKRRKVD | not soluble |
| GSMAWHLGIRSQSRPNDIMAEVCRAIKQLDYEWKVVNPYYLRVRRKNPVTSTFSKMSLQLYQVDSRTYLLDFRSIDDEITEAKSGTATPQRSGSISNYRSCQRSDSDAEAQGKPSEVSLTSSVTSLDSSPVDVAPRPGSHTIEFFEMCANLIKILAQ | soluble |
| MEKAYDFEVEAPPEVVRDYLMNPENLMKYIPHFKDLKRVDDGWELYVSWLFTIKLKVKRVFTNTDIIYLVEKSEGLIKIKSSLRFTIFPSKGGITIVRLVFFYDGPFESIVKGQADAFYRKGKEVFKTEMTKEKRIQEEQNGVKGEVSIYEMKTIFSGKINKDELEKYLEIAMVKSVNSTVVVILSDERNIIEIKFKGGELVAQKGDLDSLSSPITILIKQLEHHHHHH | soluble |
| MFLEKDMQKNTLWFNGLSMDDVDKVGGKNASLGEMVSNLANVGVSVPNGFATTSYAFNQFLDHEGLDERIHQLLDELDVDDVEALRKTGATIRQWVLQAPFPADLEQEIRNNYEELIEGNTELSVAVRSSATAEDLPDASFAGQQETFLNVKGIDAVLEATKHVYASLFNDRAISYRVHQGFDHRGISLSAGIQRMVRSDKASSGVMFTLDTESGFDQVVFITSSWGLGEMVVQGAVNPDEFYVHKPMLEAGEHPIVKKTFGSKLIKMIYSNNQEIGKQVDIIDTSEEERNTFSLNEEEIKELAKQAMIIEKHYQRPMDIEWAKDGIDGKLYIVQARPETVCSQTEQNVIERYELNNKADVLVEG | not soluble |
| MSYPIKSTLIILRGNSASGKTTIAKQLQEHFGQGTLLVSQDVVRRDMLRVHDTIGNLSHDLLFEITKYGKGKCEFVILEGILNSHRYGDMLKELIHLFEGNAYTYYFDLSLKETIRRHNTREKRHEFGEDSLQKWYNPHDTIEVTRETIFTDNLTQKDIFDAILNDVMVRKLEHHHHHH | soluble |
| MSPLTQFKFFLWFFSHFKVALIGYLKPKLIQLTDNEIVVRLPLTRRSRNHLHSMYFGALAVGADIAGGLHGFYHAKQAKCKVSLAFKSFQAQFLRRPESDVYFICTEGDVVKKMIEESKKSGERINKPIHIKAYINYLTHPEEIADFILELSLKVIKLEHHHHHH | soluble |
| MGSDKIHHHHHHMTDPDIGDSQDHANIISILQDLGLTENESRVYILLLEYGSMAAQDILRYLPLRQPQLYDITSSLERKGFINVLLGRPKKYEAIDPEAVVEAREQILSRNRRYFLTWANRAMETRRETTALINAKNIRSVINNSIDLINETEKTLEIETTQELFAYIREPILRKIREGCRVEILFFGTDVDLEKVQNQFTDLDVDVRYVSPGQFFTVISDEKNSVFMPRSVAMNTDIERYGYVIRDKDMSWFITHNFFVGWYRGNRIKDHSVVAPYTYHSQRILISDLKRIFDQKGRVHGVLEGIVRSTGDRFTSEGEISEINSDTEIINFVFKTDRGEYTVGGYDSQIEDIVMKSFTVASFG | not soluble |
